From US20030113892A1
No end group written: not given here.

B1: birtoxin (peptide)
chain: ADVPGNYPLDKDGNTYKCFLLGGNEECLNVCKLHGVQYGYCYASKCWCEYLEDDKDVS
modifications: also: three disulfide bridges, pairings not given here

Columns and labels:
[1] = target: rat brain synaptosomes (voltage-gated sodium channel, receptor site 3) (rat); experiment: cell-based or functional assay
[2] = target: rat brain synaptosomes (voltage-gated sodium channel, receptor site 3) (rat)

Row | Molecule | enhancement of [3H] BTX binding to rat brain synaptosomes [1] | EC50 [2]
1 | uctoxin (peptide) | 2 fold | 60 nM
2 | B1 | 4.32 fold | 5 nM
